From patent US20260274985A1 (MYTHIC THERAPEUTICS, published 2026)

T1: Human TROP2 Protein, His Tag (Acro Biosystems) (human, UniProt P09758 27-274)
T1 construct: also called TACSTD2; not shown: His tag
T1 sequence (looked up): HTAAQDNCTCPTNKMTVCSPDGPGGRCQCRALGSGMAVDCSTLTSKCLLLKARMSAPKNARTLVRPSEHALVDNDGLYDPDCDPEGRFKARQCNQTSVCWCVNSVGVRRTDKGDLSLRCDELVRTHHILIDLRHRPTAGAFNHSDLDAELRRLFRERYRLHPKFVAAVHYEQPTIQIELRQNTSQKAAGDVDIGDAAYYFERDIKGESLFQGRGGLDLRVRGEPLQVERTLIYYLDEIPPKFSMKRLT

B1: MYT13380 (antibody, V domains shown)
VH: QVQLQQSGSELKKPGASVKVSCKASGYTFTNYGMNWVKQAPGQGLKWMGWINTYTGEPTYTDDFHGRFAFSLDTSVSTAYLQISSLKADDTAVYFCARGGFGSSYWYFDVWGQGSLVTVSS
VL: DIQLTQSPSSLSASVGDRVSITCKASQDVHIAVAWYQQKPGKAPKLLIYSHSYRYTGVPDRFSGSGSGTDFTLTISSLQPEDFAVYYCQQHYITPLTFGAGTKVEIK
notes: Sacituzumab HC-LC pairing variant
B2: MYT13381 (antibody, V domains shown)
VH: QVQLQQSGSELKKPGASVKVSCKASGYTFTNYGMNWVKQAPGQGLKWMGWINTYTGEPTYTDDFKHRFAFSLDTSVSTAYLQISSLKADDTAVYFCARGGFGSSYWYFDVWGQGSLVTVSS
VL: DIQLTQSPSSLSASVGDRVSITCKASQDVHIAVAWYQQKPGKAPKLLIYSHSYRYTGVPDRFSGSGSGTDFTLTISSLQPEDFAVYYCQQHYITPLTFGAGTKVEIK
notes: as for B1
B3: MYT13384 (antibody, V domains shown)
VH: QVQLQQSGSELKKPGASVKVSCKASGYTFTNYGMNWVKQAPGQGLKWMGWINTYTGEPTHTDDFKGRFAFSLDTSVSTAYLQISSLKADDTAVYFCARGGFGSSYWYFDVWGQGSLVTVSS
VL: DIQLTQSPSSLSASVGDRVSITCKASQDVHIAVAWYQQKPGKAPKLLIYSAHYRYTGVPDRFSGSGSGTDFTLTISSLQPEDFAVYYCQQHYITPLTFGAGTKVEIK
notes: as for B1
B4: MYT13389 (antibody, V domains shown)
VH: QVQLQQSGSELKKPGASVKVSCKASGYTFTNYGMNWVKQAPGQGLKWMGWINTYTGEPTYTDDFKHRFAFSLDTSVSTAYLQISSLKADDTAVYFCARGGFGSSYWYFDVWGQGSLVTVSS
VL: DIQLTQSPSSLSASVGDRVSITCKASQDVHIAVAWYQQKPGKAPKLLIYSAHYRYTGVPDRFSGSGSGTDFTLTISSLQPEDFAVYYCQQHYITPLTFGAGTKVEIK
notes: as for B1
B5: MYT13390 (antibody, V domains shown)
VH: QVQLQQSGSELKKPGASVKVSCKASGYTFTNHGMNWVKQAPGQGLKWMGWINTYTGEPTYTDDFKGRFAFSLDTSVSTAYLQISSLKADDTAVYFCARGGFGSSYWYFDVWGQGSLVTVSS
VL: DIQLTQSPSSLSASVGDRVSITCKASQDVSIAHAWYQQKPGKAPKLLIYSASHRYTGVPDRFSGSGSGTDFTLTISSLQPEDFAVYYCQQHYITPLTFGAGTKVEIK
notes: as for B1
B6: MYT13391 (antibody, V domains shown)
VH: QVQLQQSGSELKKPGASVKVSCKASGYTFTNYHMNWVKQAPGQGLKWMGWINTYTGEPTYTDDFKGRFAFSLDTSVSTAYLQISSLKADDTAVYFCARGGFGSSYWYFDVWGQGSLVTVSS
VL: DIQLTQSPSSLSASVGDRVSITCKASQDVSIAHAWYQQKPGKAPKLLIYSASHRYTGVPDRFSGSGSGTDFTLTISSLQPEDFAVYYCQQHYITPLTFGAGTKVEIK
notes: as for B1
B7: MYT13393 (antibody, V domains shown)
VH: QVQLQQSGSELKKPGASVKVSCKASGYTFTNYGMNWVKQAPGQGLKWMGWINTYTGEPTYTHDFKGRFAFSLDTSVSTAYLQISSLKADDTAVYFCARGGFGSSYWYFDVWGQGSLVTVSS
VL: DIQLTQSPSSLSASVGDRVSITCKASQDVSIAHAWYQQKPGKAPKLLIYSASHRYTGVPDRFSGSGSGTDFTLTISSLQPEDFAVYYCQQHYITPLTFGAGTKVEIK
notes: as for B1
B8: MYT13394 (antibody, V domains shown)
VH: QVQLQQSGSELKKPGASVKVSCKASGYTFTNYGMNWVKQAPGQGLKWMGWINTYTGEPTYTDHFKGRFAFSLDTSVSTAYLQISSLKADDTAVYFCARGGFGSSYWYFDVWGQGSLVTVSS
VL: DIQLTQSPSSLSASVGDRVSITCKASQDVSIAHAWYQQKPGKAPKLLIYSASHRYTGVPDRFSGSGSGTDFTLTISSLQPEDFAVYYCQQHYITPLTFGAGTKVEIK
notes: as for B1

Each binder was assayed against T1, Human TROP2 Protein, His Tag (Acro …) (assay: BLI (Octet) [1/2]).

Does B1 bind?
Result: binds

Does B2 bind?
Result: binds

Does B3 bind?
Result: binds

Does B4 bind?
Result: binds

Does B5 bind?
Result: binds

Does B6 bind?
Result: binds

Does B7 bind?
Result: binds

Does B8 bind?
Result: binds
